Experimental data: US12723078 (University of Texas, dated 2026)

Tests used:
[1] = target: T1, recombinant human LILRB1 protein (human, UniProt Q8NHL6 24-461); assay: Octet RED96, LILRB1 at 100, 33.3, 11.1 and 3.7 nM
T1 construct: ELISA and Octet methods say only 'recombinant LILRB1'; also called recombinant LILRB1; LILRB1 recombinant proteins

LILRB2 on reporter cells [2] = target: T2, LILRB2 on reporter cells (UniProt Q8N423 22-597); assay: flow cytometry on 2B4 cells expressing the LILR, PE
T2 construct: whole, on cells; The construct is not described

LILRB3 on reporter cells = target: T3, LILRB3 on reporter cells (UniProt O75022 24-631, limits assumed); assay: as above
T3 construct: whole, on cells

LILRB4 on reporter cells = target: T4, LILRB4 on reporter cells (UniProt Q8NHJ6 22-448); assay: as above
T4 construct: whole, on cells

LILRB5 on reporter cells = target: T5, LILRB5 on reporter cells (UniProt O75023 24-590, limits assumed); assay: as above
T5 construct: whole, on cells

LILRA1 on reporter cells = target: T6, LILRA1 on reporter cells (UniProt O75019 17-489, limits assumed); assay: as above
T6 construct: whole, on cells

[3] = target: T7, LILRB1 expressed on cell surface (human, UniProt Q8NHL6 24-650); assay: as above
T7 construct: One entry is used for LILRB1 on reporter cells and on NK cells; also called LILRB1 NFAT-GFP reporter cell; LILRB1 reporter cells

LILRA2 on reporter cells = target: T8, LILRA2 on reporter cells (UniProt Q8N149 24-483); assay: as above
T8 construct: whole, on cells

LILRA4 on reporter cells = target: T9, LILRA4 on reporter cells (UniProt P59901 24-499); assay: as above
T9 construct: whole, on cells

LILRA5 on reporter cells = target: T10, LILRA5 on reporter cells (UniProt A6NI73 42-299); assay: as above
T10 construct: whole, on cells

LILRA6 on reporter cells = target: T11, LILRA6 on reporter cells (UniProt Q6PI73 24-481); assay: as above
T11 construct: whole, on cells

LILRB2 on reporter cells [4] = target: T2, LILRB2 on reporter cells; assay: flow cytometry on LILR reporter cells, 0.5 µg/mL rabbit B1-176, anti-rabbit IgG PE

T2 sequence (Q8N423 22-597): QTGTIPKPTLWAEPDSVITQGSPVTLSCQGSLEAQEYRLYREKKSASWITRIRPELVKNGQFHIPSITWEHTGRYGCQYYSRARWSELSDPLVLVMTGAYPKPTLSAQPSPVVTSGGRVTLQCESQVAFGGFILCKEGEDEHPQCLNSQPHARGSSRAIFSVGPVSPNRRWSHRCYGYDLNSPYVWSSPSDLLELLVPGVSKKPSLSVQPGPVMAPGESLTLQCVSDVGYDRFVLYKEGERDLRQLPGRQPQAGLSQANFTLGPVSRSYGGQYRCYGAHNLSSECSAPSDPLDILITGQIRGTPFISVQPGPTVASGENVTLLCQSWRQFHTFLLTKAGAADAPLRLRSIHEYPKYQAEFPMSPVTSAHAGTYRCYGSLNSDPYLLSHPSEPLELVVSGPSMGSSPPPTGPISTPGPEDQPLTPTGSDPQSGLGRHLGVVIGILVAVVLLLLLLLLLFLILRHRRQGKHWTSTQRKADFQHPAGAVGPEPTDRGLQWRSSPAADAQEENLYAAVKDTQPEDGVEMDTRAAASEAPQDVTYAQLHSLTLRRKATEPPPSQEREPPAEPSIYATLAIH
T10 sequence (A6NI73 42-299): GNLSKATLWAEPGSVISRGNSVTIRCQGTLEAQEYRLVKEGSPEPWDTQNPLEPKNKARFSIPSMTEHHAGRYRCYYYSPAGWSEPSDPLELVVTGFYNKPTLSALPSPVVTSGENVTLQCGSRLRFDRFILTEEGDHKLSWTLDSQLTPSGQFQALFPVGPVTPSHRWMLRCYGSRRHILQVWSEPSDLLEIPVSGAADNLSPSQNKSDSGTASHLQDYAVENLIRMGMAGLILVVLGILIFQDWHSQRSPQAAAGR
T11 sequence (Q6PI73 24-481): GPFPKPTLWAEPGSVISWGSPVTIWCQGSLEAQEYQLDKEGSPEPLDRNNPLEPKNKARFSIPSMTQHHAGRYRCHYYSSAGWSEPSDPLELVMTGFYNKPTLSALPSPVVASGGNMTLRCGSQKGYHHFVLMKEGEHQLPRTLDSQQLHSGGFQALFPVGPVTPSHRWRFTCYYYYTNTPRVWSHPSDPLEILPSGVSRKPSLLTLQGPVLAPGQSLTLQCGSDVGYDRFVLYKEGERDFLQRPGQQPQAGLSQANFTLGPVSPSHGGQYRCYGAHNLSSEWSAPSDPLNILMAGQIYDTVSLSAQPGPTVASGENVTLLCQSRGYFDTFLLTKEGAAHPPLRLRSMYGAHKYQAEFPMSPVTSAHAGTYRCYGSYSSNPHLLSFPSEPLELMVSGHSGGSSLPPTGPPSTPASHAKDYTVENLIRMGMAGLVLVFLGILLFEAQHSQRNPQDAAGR
T5 sequence (O75023 24-590 limits assumed): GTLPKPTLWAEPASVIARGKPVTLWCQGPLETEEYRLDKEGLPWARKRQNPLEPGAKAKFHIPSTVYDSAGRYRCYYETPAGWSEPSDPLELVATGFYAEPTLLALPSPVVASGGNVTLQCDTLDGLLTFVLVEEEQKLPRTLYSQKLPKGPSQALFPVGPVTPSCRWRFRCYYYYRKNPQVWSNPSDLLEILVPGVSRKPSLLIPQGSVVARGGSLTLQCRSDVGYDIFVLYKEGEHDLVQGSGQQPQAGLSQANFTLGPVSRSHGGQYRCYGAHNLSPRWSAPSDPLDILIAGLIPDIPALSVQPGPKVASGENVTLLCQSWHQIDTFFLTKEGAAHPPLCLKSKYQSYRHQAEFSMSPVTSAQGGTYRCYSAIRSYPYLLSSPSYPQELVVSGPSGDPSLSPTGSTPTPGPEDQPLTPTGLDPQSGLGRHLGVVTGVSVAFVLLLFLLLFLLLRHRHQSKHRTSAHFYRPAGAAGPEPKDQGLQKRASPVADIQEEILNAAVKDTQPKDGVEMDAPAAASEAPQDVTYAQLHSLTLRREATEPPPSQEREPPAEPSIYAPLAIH
T6 sequence (O75019 17-489 limits assumed): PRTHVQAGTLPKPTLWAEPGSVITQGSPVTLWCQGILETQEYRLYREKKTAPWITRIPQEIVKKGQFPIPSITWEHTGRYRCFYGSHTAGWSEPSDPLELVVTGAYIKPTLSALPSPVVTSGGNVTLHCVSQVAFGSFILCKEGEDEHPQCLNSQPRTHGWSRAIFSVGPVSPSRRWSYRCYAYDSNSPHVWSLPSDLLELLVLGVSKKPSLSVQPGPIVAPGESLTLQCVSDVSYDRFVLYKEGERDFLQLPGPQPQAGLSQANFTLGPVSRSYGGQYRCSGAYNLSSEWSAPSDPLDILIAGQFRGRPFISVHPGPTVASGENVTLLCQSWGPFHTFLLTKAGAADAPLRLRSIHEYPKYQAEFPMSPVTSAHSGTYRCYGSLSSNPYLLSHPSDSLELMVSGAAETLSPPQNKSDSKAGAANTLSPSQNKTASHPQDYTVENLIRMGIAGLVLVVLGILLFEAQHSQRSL
T8 sequence (Q8N149 24-483): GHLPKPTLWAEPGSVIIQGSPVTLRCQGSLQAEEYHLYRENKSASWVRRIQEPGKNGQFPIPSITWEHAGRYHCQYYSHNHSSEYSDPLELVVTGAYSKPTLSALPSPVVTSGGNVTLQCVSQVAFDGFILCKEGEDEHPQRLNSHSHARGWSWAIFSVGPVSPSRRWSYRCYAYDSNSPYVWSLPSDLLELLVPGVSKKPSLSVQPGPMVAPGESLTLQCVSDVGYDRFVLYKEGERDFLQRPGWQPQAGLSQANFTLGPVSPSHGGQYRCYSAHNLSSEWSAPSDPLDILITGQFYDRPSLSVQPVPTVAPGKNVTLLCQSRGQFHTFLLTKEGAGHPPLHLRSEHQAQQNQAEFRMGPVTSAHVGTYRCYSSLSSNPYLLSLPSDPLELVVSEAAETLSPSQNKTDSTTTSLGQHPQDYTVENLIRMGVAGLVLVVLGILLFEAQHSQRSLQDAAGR
T1 sequence (Q8NHL6 24-461 limits assumed): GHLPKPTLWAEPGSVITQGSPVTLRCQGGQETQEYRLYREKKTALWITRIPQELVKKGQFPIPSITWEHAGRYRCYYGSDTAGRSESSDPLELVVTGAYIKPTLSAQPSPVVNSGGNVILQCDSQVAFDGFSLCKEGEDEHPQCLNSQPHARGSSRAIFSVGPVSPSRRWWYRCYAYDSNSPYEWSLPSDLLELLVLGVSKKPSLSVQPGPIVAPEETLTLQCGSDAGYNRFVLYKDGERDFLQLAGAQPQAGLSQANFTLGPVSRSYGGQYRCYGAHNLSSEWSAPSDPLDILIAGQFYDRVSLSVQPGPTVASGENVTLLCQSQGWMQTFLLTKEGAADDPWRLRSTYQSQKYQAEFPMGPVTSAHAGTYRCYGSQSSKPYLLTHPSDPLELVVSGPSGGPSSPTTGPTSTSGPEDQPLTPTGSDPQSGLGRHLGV
T9 sequence (P59901 24-499): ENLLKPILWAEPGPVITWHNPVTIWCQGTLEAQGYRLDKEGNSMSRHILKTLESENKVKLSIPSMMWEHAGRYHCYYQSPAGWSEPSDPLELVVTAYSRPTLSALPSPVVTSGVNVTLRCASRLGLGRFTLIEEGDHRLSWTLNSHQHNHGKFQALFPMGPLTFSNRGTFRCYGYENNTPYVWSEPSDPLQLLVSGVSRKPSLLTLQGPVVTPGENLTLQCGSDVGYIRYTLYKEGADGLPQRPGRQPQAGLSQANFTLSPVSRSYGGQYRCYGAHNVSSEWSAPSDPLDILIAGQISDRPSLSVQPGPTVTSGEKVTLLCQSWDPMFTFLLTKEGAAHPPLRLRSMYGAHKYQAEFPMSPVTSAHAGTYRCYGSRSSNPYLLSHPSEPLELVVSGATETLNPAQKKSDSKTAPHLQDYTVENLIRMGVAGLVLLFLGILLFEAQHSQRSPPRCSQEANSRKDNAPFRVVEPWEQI
T7 sequence (Q8NHL6 24-650 limits assumed): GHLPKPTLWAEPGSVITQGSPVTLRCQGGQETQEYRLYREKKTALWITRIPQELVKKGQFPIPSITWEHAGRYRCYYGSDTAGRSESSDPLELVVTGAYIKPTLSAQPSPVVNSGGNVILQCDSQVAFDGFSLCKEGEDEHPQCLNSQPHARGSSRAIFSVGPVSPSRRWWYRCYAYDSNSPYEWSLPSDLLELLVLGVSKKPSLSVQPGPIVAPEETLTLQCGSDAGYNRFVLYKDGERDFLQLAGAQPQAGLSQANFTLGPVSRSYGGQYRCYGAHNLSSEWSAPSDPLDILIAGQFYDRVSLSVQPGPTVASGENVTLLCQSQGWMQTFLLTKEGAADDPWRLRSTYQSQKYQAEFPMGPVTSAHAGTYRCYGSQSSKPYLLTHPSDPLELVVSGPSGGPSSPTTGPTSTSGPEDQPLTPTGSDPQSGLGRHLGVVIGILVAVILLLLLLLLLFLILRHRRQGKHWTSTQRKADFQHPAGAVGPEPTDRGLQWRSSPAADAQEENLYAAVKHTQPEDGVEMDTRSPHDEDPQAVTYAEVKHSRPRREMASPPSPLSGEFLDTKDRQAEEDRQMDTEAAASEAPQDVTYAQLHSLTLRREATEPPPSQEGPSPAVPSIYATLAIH

Kd [1]: < 0.01 nM | percent of cells in the gate (LILRB2 on reporter cells [2]): 0.676% | percent of cells in the gate (LILRB3 on reporter cells): 0.0698% | percent of cells in the gate (LILRB4 on reporter cells): 0.181% | percent of cells in the gate (LILRB5 on reporter cells): 0.29% | percent of cells in the gate (LILRA1 on reporter cells): 0.124% | percent of cells in the gate [3]: 99.2% | percent of cells in the gate (LILRA2 on reporter cells): 0.11% | percent of cells in the gate (LILRA4 on reporter cells): 0.0736% | percent of cells in the gate (LILRA5 on reporter cells): 0.101% | percent of cells in the gate (LILRA6 on reporter cells): 0.123% | percent of cells in the gate (LILRB2 on reporter cells [4]): 0.68%
B1: B1-176 rabbit antibody (antibody, V domains shown)
VH: QSLEESEGGLVKPGGTLTLTCTASGFSFSSSYCMCWVRQAPGKGLELIACIYTDSSGATYYASWAKGRFTISKSSSTTITLQMTSLTAADTATYFCARGWDYEDPGYTDTTYFSLWGPGTLVTVSS
VL: ELDLTQTPSSVEAAVGGTVTIKCQASQTIYTNLAWYQQKPGQPPNLLIYAASTLASGVSSRFKGSGSGTEFTLTISDLECADAATYYCQSYYGSSTTGNGFGGGTEVEIK
notes: Full-length rabbit IgG, kappa; Variable genes were cloned into a rabbit IgG expression vector and expressed in Expi293F cells
